Results from paper PMC11008601, “Motor properties of Myosin 5c are modulated by tropomyosin isoforms and inhibited by pentabromopseudilin” (Frontiers in Physiology, 2024).

Tests used:
Myo5c–HMM = target: T1, Myo5c–HMM (Homo sapiens, UniProt Q9NQX4); test: NADH-coupled steady-state actin-activated ATPase assay, dose-response fit; assay type: biochemical
T1 construct: heavy meromyosin fragment, residues 1-1108 (motor domain, six IQ motifs, coiled coil), C-terminal Flag tag, co-produced with light chains in baculovirus/Sf9, anti-FLAG purification; dimer; six CaM per heavy chain when co-produced with CaM only; with Calmodulin-1

[1] = target: F–actin (bare actin filaments) (not stated (human β–actin or chicken α–skeletal actin prepared)) (UniProt P60709)
[2] = target: cofilaments of actin and Tpm1.6 (not stated (human β–actin or chicken α–skeletal actin prepared) | human) (UniProt P60709)
[3] = target: cofilaments of actin and Tpm1.8 (not stated (human β–actin or chicken α–skeletal actin prepared) | human) (UniProt P60709)
[4] = target: cofilaments of actin and Tpm3.1 (not stated (human β–actin or chicken α–skeletal actin prepared) | human) (UniProt P60709)
[5] = target: Myo5c–HMM heavy chain (human Myo5c, amino acids 1–1108, C-terminal Flag) (human) (UniProt Q9NQX4); test: co-purification on anti-FLAG affinity resin, Coomassie gel and immunoblot; Myo5c–HMM-Flag co-produced with CaM alone in Sf9; lysate on anti-FLAG-M2 resin 2 h at 4°C, washed with 500 mM NaCl and 2 mM ATP, then 100 mM NaCl, eluted with FLAG peptide; blot with anti-Flag and anti-CaM; ratio from the gel
[6] = target: Myo5c–HMM heavy chain (human Myo5c, amino acids 1–1108, C-terminal Flag) (human) (UniProt Q9NQX4); test: co-purification on anti-FLAG affinity resin, Coomassie gel and immunoblot; Myo5c–HMM-Flag co-produced with CaM, RLC (Myl12b) and ELC (Myl6) in Sf9; lysate on anti-FLAG-M2 resin 2 h at 4°C, washed with 500 mM NaCl and 2 mM ATP, then 100 mM NaCl, eluted with FLAG peptide; blot with anti-Myl12b, anti-CaM, anti-Myl6; ratios from the Coomassie-stained gel
[7] = target: T2, Myo5c–HMM heavy chain (human Myo5c, amino acids 1–1108, C-terminal Flag) (human, UniProt Q9NQX4 1-1108); test: as above; settings: partners not purified
T2 construct: human myosin 5c (Myo5c) heavy chain, amino acids 1-1108 (motor domain, neck with IQ motifs, part of the coiled coil), Uniprot-ID Q9NQX4; Cloned in pFastBac Dual under the polyhedrin promotor; also called heavy meromyosin fragment of the Myo5c heavy chain; source: baculovirus/Sf9, co-produced with light chains; not shown: Flag, C-terminal, kept
T2 sequence (Q9NQX4 1-1108): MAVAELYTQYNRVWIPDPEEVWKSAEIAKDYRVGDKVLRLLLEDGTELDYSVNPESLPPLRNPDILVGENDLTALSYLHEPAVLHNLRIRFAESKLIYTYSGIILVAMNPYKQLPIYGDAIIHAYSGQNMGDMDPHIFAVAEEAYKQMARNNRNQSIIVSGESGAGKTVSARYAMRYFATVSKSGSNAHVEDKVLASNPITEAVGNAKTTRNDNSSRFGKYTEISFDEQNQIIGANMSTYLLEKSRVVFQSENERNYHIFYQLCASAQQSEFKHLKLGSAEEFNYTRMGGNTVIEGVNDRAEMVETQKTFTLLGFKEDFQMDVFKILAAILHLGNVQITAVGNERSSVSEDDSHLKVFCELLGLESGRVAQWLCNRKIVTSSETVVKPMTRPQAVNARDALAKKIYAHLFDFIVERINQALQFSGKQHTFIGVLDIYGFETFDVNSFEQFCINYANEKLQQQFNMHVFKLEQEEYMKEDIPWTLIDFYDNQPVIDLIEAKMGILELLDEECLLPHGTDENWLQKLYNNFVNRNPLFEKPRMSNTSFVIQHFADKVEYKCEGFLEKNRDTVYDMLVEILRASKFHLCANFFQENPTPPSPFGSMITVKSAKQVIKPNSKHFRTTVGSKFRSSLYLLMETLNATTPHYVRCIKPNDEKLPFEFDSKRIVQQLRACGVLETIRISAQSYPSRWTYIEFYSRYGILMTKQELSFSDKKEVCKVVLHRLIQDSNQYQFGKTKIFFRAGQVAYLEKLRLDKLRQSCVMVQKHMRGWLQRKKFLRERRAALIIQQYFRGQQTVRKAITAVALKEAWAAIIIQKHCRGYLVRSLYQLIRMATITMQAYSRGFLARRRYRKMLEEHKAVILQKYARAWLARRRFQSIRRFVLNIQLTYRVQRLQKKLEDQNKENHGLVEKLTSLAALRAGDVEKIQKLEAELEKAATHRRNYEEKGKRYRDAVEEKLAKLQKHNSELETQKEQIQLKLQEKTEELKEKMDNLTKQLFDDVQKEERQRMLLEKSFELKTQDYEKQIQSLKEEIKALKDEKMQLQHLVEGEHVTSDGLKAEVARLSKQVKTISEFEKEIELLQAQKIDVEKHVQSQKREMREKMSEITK

Myo5c–HMM heavy chain (human Myo5c, amino acids 1–1108, C-terminal Flag) (human), sequence (Q9NQX4 1-1108): as above
T1 sequence (Q9NQX4 1-1108): as above

Oc1c(Br)cc(Br)cc1-c1[nH]c(Br)c(Br)c1Br [PBP, 2,3,4–tribromo–5–(3,5–dibromo–2–hydroxyphenyl)–1H–pyrrole]
IC50 (Myo5c–HMM): 280 ± 60 nM

Myo5c–HMM (CaM): Myo5c–HMM heavy chain co-produced and co-purified with calmodulin (from UniProt Q9NQX4 1-1108; P0DP23 1-149) (complex)
K (app actin) of the steady-state actin-activated ATPase (NADH-coupled assay, 30°C, 0.15 µM myosin), bare actin [1]: 5.7 µM | K (app actin) of the steady-state actin-activated ATPase (NADH-coupled assay, 30°C, 0.15 µM myosin), actin–Tpm1.6 cofilaments [2]: 2.31 µM | K (app actin) of the steady-state actin-activated ATPase (NADH-coupled assay, 30°C, 0.15 µM myosin), actin–Tpm1.8 cofilaments [3]: 3.24 µM | K (app actin) of the steady-state actin-activated ATPase (NADH-coupled assay, 30°C, 0.15 µM myosin), actin–Tpm3.1 cofilaments [4]: 5.54 µM

calmodulin (CaM) (from UniProt P0DP23 1-149) (natural protein)
stoichiometry N (CaM per heavy chain) [5]: 6 | stoichiometry N (light chain:heavy chain) [6]: 2

B1: essential light chain Myl6 (natural protein, human (from the printed UniProt entry), UniProt P60660 1-151, looked up)
chain: MCDFTEDQTAEFKEAFQLFDRTGDGKILYSQCGDVMRALGQNPTNAEVLKVLGNPKSDEMNVKVLDFEHFLPMLQTVAKNKDQGTYEDYVEGLRVFDKEGNGTVMGAEIRHVLVTLGEKMTEEEVEMLVAGHEDSNGCINYEAFVRHILSG
notes: myosin essential light chain Myl6, Uniprot-ID P60660 (a human entry); the vector was prepared as in Reindl et al., 2022; also called ELC; source: baculovirus/Sf9, co-produced with Myo5c–HMM, CaM and Myl12b
stoichiometry N [7]: ~1 light chain:heavy chain

B2: regulatory light chain Myl12b (natural protein, human (from the printed UniProt entry), UniProt O14950 1-172, looked up)
chain: MSSKKAKTKTTKKRPQRATSNVFAMFDQSQIQEFKEAFNMIDQNRDGFIDKEDLHDMLASLGKNPTDAYLDAMMNEAPGPINFTMFLTMFGEKLNGTDPEDVIRNAFACFDEEATGTIQEDYLRELLTTMGDRFTDEEVDELYREAPIDKKGNFNYIEFTRILKHGAKDKDD
notes: myosin regulatory light chain 12B (Myl12b), Uniprot-ID O14950 (a human entry); the vector was prepared as in Reindl et al., 2022; also called RLC; source: baculovirus/Sf9, co-produced with Myo5c–HMM, CaM and Myl6
stoichiometry N [7]: ~3 light chain:heavy chain
